The values below come from patent US9023998B2, “Near infrared fluorogen and fluorescent activating proteins for in vivo imaging and live-cell biosensing” (Carnegie Mellon University, priority 2013, dated 2015).

One series relates to dL9 (SEQ. ID NO: 1). The experiment in a line: Fluorescence activation of SKC638 by purified dL9. Format: biochemical. The note with it: molar excess of purified dL9, excitation 630 nm, non-normalized spectrum. The text has this:
The non-normalized emission spectrum shown (black, solid) was acquired using a Quantamaster fluorometer (PTI) by excitation through monochromators set at 630 nm. The primary peak near 730 nm is likely due to contaminating SKC602, while a second, smaller peak is clearly observed near 823 nm, and is likely contributed by the extended chromophore of SKC638.

Series [1] can be described thus: Spectral properties of fluoromodules (Table 1). Format: physicochemical. To be noted: fluoromodule (FAP:fluorogen complex). From the text:
The spectral properties of fluoromodules assembled from combinations of dL9.2 (SEQ. ID. NO. 2) and dL9.5 (SEQ. ID. NO. 3) with SKC602 and SKC728 are listed in Table 1. dL9.2 (SEQ. ID. NO. 2) is an asymmetric light chain (VL-VL) tandem dimer based upon dL9 (SEQ. ID. NO. 1), hosting the V70A mutation on the N-terminal light chain. dL9.5 (SEQ. ID. NO. 3) is a symmetric light chain (VL-VL) tandem dimer based upon dL9.2 (SEQ. ID. NO. 2) with the V70A mutation propagated to C-terminal chain, and an additional Y96H mutation that is present on both chains. These genetically encoded fluorescent labels yield good brightness in the far-red/NIR spectral regime when combined with their cognate fluorogens.
The dL9.2:SKC602 (SEQ. ID. NO. 2:SKC602) fluoromodule (black, solid) emits at longer wavelengths than existing biliverdin-binding infra-red fluorescent proteins, while retaining the ability to be excited effectively by common illumination sources such as the HeNe laser line (633 nm) as well as lamps equipped with Cy5™-compatible excitation filters. Spectra of dL9.5 (SEQ. ID. NO. 3) bound to SKC602 are highly similar. Excitation and emission spectra are normalized to the highest value within each data set.
(§1) Relative fluorescence quantum yield assessments were conducted via the gradient method (Williams, Winfield and Miller, Relative Fluorescent Quantum Yield Using a Computer-controlled Luminescence Spectrometer, Analyst, vol. 108, 1067-1071 ([…]) against reference dyes Cy5.18 in PBS, pH 7.4 (Mujumdar, et al., Cyanine Dyes Labeling Reagents: Sulfoindocyanine Succinimidyl Esters, Bioconjugate Chemistry, Vol. 4, No. 2, 105-111 (1993) and oxazine-1 in absolute ethanol (Worth, et al., Integrating Sphere Setup for the Traceable Measurement of Absolute Photoluminescence Quantum Yields in the Near Infrared, Analytical Chemistry, 84, 1345-1352 (2012). Fluoromodules were formed by combining a quantity of fluorogen (SKC602 or SKC728) at least 20-fold above the fluoromodule dissociation constant with a molar excess of purified FAP (dL9.2 (SEQ. ID. NO. 2) or dL9.5 (SEQ. ID. NO. 3)). The solutions were incubated at 4° C. with rocking for at least one hour prior to measurements in order to ensure complete complex formation. The optical path length for all sample measurements was 1.00 cm, and all solutions were at room temperature during measurement. Absorbance measurements were taken using a PerkinElmer Lambda 45 UV/VIS spectrometer, while fluorescence emission spectra were measured using a Quantamaster fluorometer equipped with dual excitation and emission monochromators (Photon Technology International). Fluorescence emission was integrated using Spekwin32 (Menges 2013, http://www.effemm2.de/spekwin/spekwin_copyright/de.html. Linear fits and quantum yield ratios were calculated in Microsoft Excel 2013.

Series [2] is described as follows: Relative fluorescence quantum yield of fluoromodules, gradient method. Format: physicochemical. The note with it: relative to Cy5.18 in PBS pH 7.4 and oxazine-1 in ethanol; molar excess of FAP; room temperature. How it is done: as §1
Series [3] has as its system HEK293 cells expressing dL9.5. The series can be described thus: Confocal imaging of HEK293 cells expressing dL9.5 in various cellular contexts. Format: cell-based. The note with it: cytoplasmic dL9.5-eGFP, 200 nM SKC602, fluorogen not washed away. The text has this:
The expressed construct was imaged using an Andor Revolution XD spinning disk confocal (GFP 488:525/50, dL9.5 (SEQ. ID. NO. 3) 640:685/70 AND 640:794/160, 60×1.49 NA oil immersion objective) and the results are shown in FIG. 5. […] The fluorogen was not washed away prior to imaging.
Imaging conditions were similar to those described for obtaining FIG. 5.
CYTOPLASM. HEK293 cells were transfected with, and stably expressing the pCYdL9.5eGFP vector, were thawed from a cryostock and maintained in DMEM/10% FBS for four passages prior to fluorescence imaging procedures. Immediately prior to imaging, growth media was exchanged for HBSS (pH 7.4) supplemented with SKC602 (200 nM final concentration). The cells were allowed to recover at 37° C. with 5% CO2 for 20-30 minutes, and fluoromodule activity under in vivo conditions within the cytoplasm was imaged using an Andor Revolution XD spinning disk confocal microscope (60×1.49 NA oil immersion objective, excitation at 640 nm, emission in far-red: 685/70 filter, and NIR: 794/160 filter). The same cells were also imaged for eGFP activity (excitation at 488 nm, emission via 525/50 nm filter). […] In accordance with the fluoromodule emission spectrum shown in FIG. 2, this emission filter allows the microscope camera to detect a large portion of the fluoromodule emission, and consequently, the observed signal appears brighter. One must note that intensities cannot be directly compared between channels, due to considerations non-exclusively including: differences in excitation light intensities, exposure and capture times, the transmission profile of each emission filter, and the quantum efficiency of the iXON3 DU897 (back-illuminated) camera across the range of emitted wavelengths. An evenly distributed fluorescence signal is observed in these cells, with no bright foci that would indicate protein aggregation, and the fluoromodule signal intensity scales with that of eGFP.
PLASMA MEMBRANE. […]

A short description of series [4]: Fluoromodule activity/stability with respect to pH. Format: physicochemical. The note with it: for Longer-term stability of fluorescence across pH: 24 hours. How it is done:
[…] 4. The averages of five replicates per pH increment are shown as filled circles; bars denote extreme values within each replicate set, and normalization is to the maximum value within all data points. […] Stability of this degree allows the fluoromodule probe to be useful in an extremely wide range of cellular contexts.
A set of titrating buffers occupying pH values from 2.0 to 10.0 in 0.5 unit increments was prepared at room temperature in accordance to a published recipe (Carmody, An Easily Prepared Wide Range Buffer Series, Journal of Chemical Education, Vol. 38, No. 11, pp. 559-560 (1961)) adjusted to accommodate sodium chloride at a concentration of 300 mM. Fluoromodules consisting of dL9.5 bound to SKC602 were prepared by addition of 16.7 μL HPLC-purified SKC602 (300 μM stock in EtOH/5% acetic acid) to 1.30 mL Buffer (10.0 mM Tris, pH 8.0 at RT, supplemented with 300 mM NaCl). Purified dL9.5 was added (1.5 mL, approximately 50 μM stock) and incubated at 4° C. for 90 minutes. […] Fluorescence was then measured using a TECAN Infinite M1000 plate reader with 695/10 nm excitation and 735/10 nm emission windows at a gain of 111. Data was processed in Microsoft Excel 2010: The mean fluorescence intensity value for each pH increment was calculated, and all mean values were divided by the maximum mean intensity in order to normalize fluorescence intensities measured across the entire pH range to a value of 1.0. Extreme values within each set of five replicates calculated to a percentage of the mean for each pH increment in order to indicate the degree of variation across replicate reads.

Numbering of substitutions follows the chain as printed.

As for `CN(C)c1ccc(/C=C/C=C/C(=C2C=CC(=[N+](C)C)C=C2)c2ccc(N(C)C)cc2)cc1` [SKC638], the “Emission peak contributed by extended chromophore” value with dL9 (SEQ. ID NO: 1) was about 823 nm.

B1: dL9.5:SKC602: fluoromodule: FAP dL9.5 (SEQ. ID. NO. 3) non-covalently complexed with fluorogen SKC602 (protein)
chain: SYELTQPPSVSVSPGQTARITCSGDALPKQYTYWYQQKAGQAPVLVIYKDTERPSGIPERFSGTSSGTTATLTISGVQAEDEADYYCQSADSSGSHVFFGGGTKVTVLSGGGGPGGGSGGGSGGGSGGGSYELTQPPSVSVSPGQTARITCSGDALPKQYTYWYQQKAGQAPVLVIYKDTERPSGIPERFSGTSSGTTATLTISGVQAEDEADYYCQSADSSGSHVFFGGGTKVTVLS
modifications: non-covalent fluorogen SKC602; Fluorogen Activating Peptide (FAP) sequence
Turning to B1, in series [1], the “Brightness (ε · Φ · 1 × 10^−3)” value came to 20; the “Em (nm), emission maximum” value turned out to be 731 nm; the “Ex (nm), excitation maximum” value was 702 nm; the ε is 120000 M⁻¹ cm⁻¹. Besides, the “Φ (fluorescence quantum yield)” value in series [2] was 0.17. In addition, the “NIR fluorescence in cytoplasm of HEK293 cells” value in series [3] is on record as “produces NIR fluorescence”. Moreover, the “Fluorescence stability across pH range” value in series [4] (Carmody buffer with 300 mM NaCl, pH 2-10, after three hours) is recorded as “exceptional stability across a broad pH range”. In series [4] (pH 2.0-10.0, reads every minute for one hour), the “Change of mean fluorescence in each pH solution over one hour” value is on record as at most 3%.

B2: dL9.5:SKC728: fluoromodule: FAP dL9.5 (SEQ. ID. NO. 3) non-covalently complexed with fluorogen SKC728 (protein)
chain: B1 chain
modifications: non-covalent fluorogen SKC728; Fluorogen Activating Peptide (FAP) sequence
Take B2: in series [1], the “Brightness (ε · Φ · 1 × 10^−3)” value is 23; the “Em (nm), emission maximum” value is recorded as 733 nm; the “Ex (nm), excitation maximum” value worked out at 703 nm; the ε came out at 98000 M⁻¹ cm⁻¹. Also, the “Φ (fluorescence quantum yield)” value in series [2] came out at 0.23.

B3: dL9.2:SKC602: fluoromodule: FAP dL9.2 (SEQ. ID. NO. 2) non-covalently complexed with fluorogen SKC602 (protein)
chain: B1 chain with H96Y, A199V, H225Y
modifications: non-covalent fluorogen SKC602; Fluorogen Activating Peptide (FAP) sequence
As for B3, in series [1], the “Brightness (ε · Φ · 1 × 10^−3)” value amounted to 20; the “Em (nm), emission maximum” value came to 731 nm; the “Ex (nm), excitation maximum” value is recorded as 702 nm; the ε came to 120000 M⁻¹ cm⁻¹. In addition, the “Φ (fluorescence quantum yield)” value in series [2] worked out at 0.17. Further, the “Longer-term stability of fluorescence across pH” value in series [4] is “remained stable over 24 hours”.

B4: dL9.2:SKC728: fluoromodule: FAP dL9.2 (SEQ. ID. NO. 2) non-covalently complexed with fluorogen SKC728 (protein)
chain: B1 chain with H96Y, A199V, H225Y
modifications: non-covalent fluorogen SKC728; Fluorogen Activating Peptide (FAP) sequence
Regarding B4, in series [1], the “Brightness (ε · Φ · 1 × 10^−3)” value worked out at 19; the “Em (nm), emission maximum” value stood at 733 nm; the “Ex (nm), excitation maximum” value is on record as 703 nm; the ε turned out to be 90000 M⁻¹ cm⁻¹. Further, in series [2], the “Φ (fluorescence quantum yield)” value is 0.21. Moreover, the “Longer-term stability of fluorescence across pH” value in series [4] is “remained stable over 24 hours”.
